Columns and labels:
[1] = target: T1, FLI1 DBD (276-375) (UniProt Q01543 276-375); test: X-ray crystallography
T1 sequence: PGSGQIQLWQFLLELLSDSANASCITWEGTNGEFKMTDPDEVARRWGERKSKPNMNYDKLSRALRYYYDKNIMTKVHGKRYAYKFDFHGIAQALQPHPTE

[2] = target: T2, 15N-labeled FLI1 DBD (NMR) (UniProt Q01543 259-399); test: NMR
T2 sequence: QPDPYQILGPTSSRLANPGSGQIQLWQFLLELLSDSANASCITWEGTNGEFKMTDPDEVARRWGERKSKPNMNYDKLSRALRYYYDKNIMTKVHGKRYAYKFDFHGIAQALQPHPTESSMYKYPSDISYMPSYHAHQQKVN

[3] = target: the molecule itself; test: crystal structure
[4] = target: T3, FLI1 DBD (259-399) (UniProt Q01543 259-399); test: fluorescence anisotropy
T3 sequence: T2 sequence

B1: 11-mer GACCGGAAGTG (dsDNA)
DNA 1: GACCGGAAGTG
DNA 2: CACTTCCGGTC
Does B1 bind [1]?
Result: binds

B2: 12-mer TTGAAGGAAGAG (dsDNA)
DNA 1: TTGAAGGAAGAG
DNA 2: CTCTTCCTTCAA
Does B2 bind [2]?
Result: binds

B3: DNA binding domain of FLI1 (residues 276-375) (domain or fragment)
chain: T1 sequence
Does B3 bind [3]?
Result: binds

B4: AA(GGAA)6 (dsDNA)
DNA 1: AAGGAAGGAAGGAAGGAAGGAAGGAA
DNA 2: TTCCTTCCTTCCTTCCTTCCTTCCTT
Does B4 bind [4]?
Result: binds

Source: publication PMC5063001 (Nucleic Acids Research, 2016)
